Measured values from the DeepSol protein solubility set.

assay: soluble on expression in E. coli; label from the status in PepcDB or PDB records

**Q.** Which “soluble on expression in E. coli” value does the source give for “MKIVTFQGGLGNQLFQYVFYLWLDMRCDKDNIYGYYPKKGLRAHNGLEIEKVFEVKLPNSSLSTDLIVKSIKLINKIFKNRQYISTDGRLDVNGVLFEGFWQDKYFWEDVDIVLNFRWPLKLDVTNSFIMTKIQANNSISIHIRRGDYLLPKYRNIYGDICNEEYYQKAIEYILKCVDDPFFFVFSDDIDWAKSIINVSNVTFVNNNKGKDSYIDMFLMSLCHHNIIANSTFSWWAAQLNKHSDKIMIAPIRWFKSLFKDPNIFTESWIRILEHHHHHH” here?
**A.** not soluble

**Q.** For “GPGSMVEHTGLKYQFFIRAASVDWDARDRESMAAGLCPLYQLLHCDVEKLQFVVYCFGEGEAYMFEKAIQTVTKYVDEEKCIMAVRSLRQRETKGHIIYDVAKKETQPAQFFFLLSYAWGMIAVSFPKVTNYDKWEKQKGAARIIMNCPAEMDVKAMCAWMKRGLDPDEQTKYWKMVETHMEKVGPIPRYIFDANKFLAHFAATEDALDGINPRDGESHFTHGGVRLWYSEDPSHKLVRVVRTRGEVGAEVFLNAPISVCLGRRIPLYFWKRDE”, which “soluble on expression in E. coli” value is on record?
**A.** not soluble

**Q.** Which “soluble on expression in E. coli” value does the source give for “MAAFAVDPQAPTLGSEPMMLGSPTSPKTGANAQFLPGFLMGDLPAPVTPQPRSISGPSVGVMEMRSPLLAGGSPPQPVVPAHKDKSGAPPVRSIYDDISSPGLGSTPLTSRRQANISLLQSPLVGATPPVPGQSMFSPANIGQPRKTTLSPAQLDPFYTQGDSLTSEDHLDDTWVTVFGFPQASASYILLQFAQYGNILKHVMSNTGNWMHIRYQSKLQARKALSKDGRIFGESIMIGVKPCIDKNVMENSDRGVLSSPSLAFTTPIRTLGTPTQSGSTPRVSTMRPLATAYKASTSDYQVISDRQTPKKDESLVSRAMEYMFGW” here?
**A.** soluble

**Q.** For “MFLTKVSLLDHPESLPGYLSSLAIVEYLHEQPLEFRAPITVITGENGVGKSTLVEALAVGMRLNPSGGSRHANFGREGDIVSSLHQSLKLVRRENPRDAFFFRGETMYNVASYYEELMGEKNMHDLHKMSHGESVFAVIDRRFNNQGFFVLDEPEAGLSMLRQLELLGKLGNLARGGAQIIMATHSPILLAIPGAEILEITSSGVAKVNFEDAEAVRAAREFVADPRGTAAFLTAEEDHQ”, which “soluble on expression in E. coli” value is on record?
**A.** soluble

**Q.** For “MGSDKIHHHHHHMETSEILKKVRQIEIKTRGLSNNIFAGQYHSAFKGRGMSFSEVREYQFGDDIRDIDWNVTARFNKPYVKVFEEERELTVMLMVDVSGSLEFGTVKQLKKDMVTEIAATLAFSAIQNNDKIGVIFFSDRIEKFIPPKKGRKHILYIIRELIDFQPESRRTNIRLALEYLTNVMKRRCTAFILSDFIDQDNFKNALTIANRKHDVVALQVYDRRVSDLPPVGLMRIKDAETGHEQWIDTSSKAVRRAHRDWWINKQTELNDTFTKSNVDSVSVRTDQDYVKALLNLFAKRN”, which “soluble on expression in E. coli” value is on record?
**A.** not soluble

**Q.** With “GIHMGKIKRRAITEHEKRALRHYFFQLQNRSGQQDLIEWFREKFGKDISQPSVSQILSSKYSYLDNTVEKPWDVKRNRPPKYPLLEAALFEWQVQQGDDATLSGETIKRAAAILWHKIPEYQDQPVPNFSNGWLEGFRKRHILH” as the sequence, how does the “soluble on expression in E. coli” value read?
**A.** soluble

**Q.** With “MGSDKIHHHHHHMWGYLQGKQVALKRNRVDLYHFGYMIRSKSARKLGTTTAQQIKDITDEIRAFLVKDHRDILSESFMNKEKRAAVEQIIKSFLLSNQVVISDVPSEQLLNMVCDDIVGFGIIEPLKEDQDVTDIYINGTKEIIYEKIGEGELTFPYRFETEEEVKALAYKMVNSTSESLNTAKPYVDCVFPYIRINIALDELGGLGTTITIRKNADHLRASEERMLSTNQASKEMLDFLAAAVKAKMNILVAGATGTGKSEFMKFLASHIPKGKKKERTLVVEDNPELYLHRIFPEHHFVPMQCRASEVEENAIDFDRLLTNALRQGPKRLIVGESRGKEALKMINFFQTGHPGFTSVHARSAIEAVRRLMLMCLQSGANIDAQYLYELISQTFDVIVFLEKKDDGNRYITEMIELLDYRGDIQFNELSQFIPTYEEQDEINESIGKIHGQHIITGKMSAKMEKKFRSATSVNPALYAPFLSQQEVQYA” as the sequence, how does the “soluble on expression in E. coli” value read?
**A.** not soluble

**Q.** With “MESLLTLPLAGEARVRILQITDTHLFAEKHETLLGVNTWESYQAVLEAIRAQQYEYDLIVATGDLAQDQSAAAYQHFAEGIASFRAPCVWLPGNHDFQPAMYSALQEAGISPAKRVLIGEQWQILLLDSQVFGVPHGELSEFQLEWLERKLADAPERQTLLLLHHHPLPAGCSWLDQHSLRNAGELDSVLANFPRVKYLLCGHIHQELDLDWNGRRLLASPSTCVQFKPHCANFTLDTIAPGWRTLELRANGVLETEVHRLQDTRFRPDTASEGY” as the sequence, how does the “soluble on expression in E. coli” value read?
**A.** not soluble

**Q.** For “MSSPKISIIIPVYMAESYLHRCVDSIITQTFTDWELLLVDDGSPDHSGELCEKYASAYKSRIKAFHKPNGGVASAREFGMQQARGEYSIHVDPDDWIDSNTLEELYQQAVKEQADMVICDFMMEYPNRQIHNCQKPQLLDSSSFMHQLLQQERHGSLCNKLIRTELYHKYQLHFPEKMICWEDLYICCSILLHGCKLAYVPHALYHYDFYTNDNSMVRHTDMRGLQAQIDFCRLMQAKISPEYLPELNELKGITLITAFRNQLLNEQAIRSLFPEINDWYVTRYGHDYEKSNYYGLTLVLRGYNFKTARRRMFVAKFLVQIKNKITRML”, which “soluble on expression in E. coli” value is on record?
**A.** not soluble

**Q.** For “MSLDNLNLIVSLKDGGLLHFKRDEELGEINVFNFQEQGTLIPFLGFFGSGKQKDVVLDGVSSNSIVDALQIGGSGVVITLSVNKVLKLWNLDGHQNLSSLTIASDDNTWLPTIPSKYLKSYDQEDGKTIITLFINTKSGDSSKSMFVFKSFELESSNLHDLSDLSFQPELPNSLLFSSDVFYHESNFQNTIWFIQDYEVVGFGTSQLKYYILWKSNTSSILVEYTINPVNGAILSEGHHHHHH”, which “soluble on expression in E. coli” value is on record?
**A.** not soluble

**Q.** For “MWSEYSLEVVDAVARNGSFSAAAQELHRVPSAVSYTVRQLEEWLAVPLFERRHRDVELTAAGAWFLKEGRSVVKKMQITRQQCQQIANGWRGQLAIAVDNIVRPERTRQMIVDFYRHFDDVELLVFQEVFNGVWDALSDGRVELAIGATRAIPVGGRYTFRDMGMLSWSCVVASHHPLALMDGPFSDDTLRNWPSLVREDTSRTLPKRITWLLDNQKRLVVPDWESSATCISAGLCIGMVPTHFAKPWLNEGKWVALELENPFPDSACCLTWQQNDMSPALTWLLEYLGDSETLNKEWLREPEETPATGD”, which “soluble on expression in E. coli” value is on record?
**A.** not soluble

**Q.** For “MGSDKIHHHHHHMSVECFVTGGSGFVGQHLLAGLTAQGHKTWVLMRSPGNIERLKEQVGQLGGNPEYIHAVEGDISQEGLGLSEADKERVTSAAVFFHLAAQFSWGLTPERARTVNVQGALSVARLAASQRIRLLMVGGFMLQNLNHLASIGVDTQCPENTNWPAVYARVGGYEGSKLESHFAVIRYMQDADADYTIVHPATVCGHSENGHILDGQPLAELIRNLAQGRFKAIPGSASHWLPLVSVDYLVKMITCVAFDPSMANRQVLALYERTPNLQGMLGQIADTLKVKAPHRHIPIGLLRSILTIPGLATRLAISAESLNFIQTQRFDMGNSRQLERKYQFTHPDMTQALENTVRYVNGSLMKKSKSEGAGQRG”, which “soluble on expression in E. coli” value is on record?
**A.** not soluble

**Q.** With “MVESTRVRSKRLSFSGKKTLSSFMQVNIASLRQSGKLRTSETYRATLNSFMKFMDGKDVLLSNMDAELMMGYETYLKAQGASMNTVSFYMRILRATYNRAVDKGVIRQRFPFKHVYTGVEKTVKRAISFKVIRQLKEMDLSHSQSMEFARDMFMFSFYTRGMSFVDMAFLKKTDLNNGMLTYRRKKTGQLLSIRWEKCMQDIVDKYPGNYSTYLLPIIIHIRKDERLQYKNSICLVNRRLKEIGKKLGLVHPLTMYVARHSWASVARGKHIPLSVISEGMGHDSEKTTLIYLAALDTTVIDKANMVVLREFL” as the sequence, how does the “soluble on expression in E. coli” value read?
**A.** not soluble

**Q.** Which “soluble on expression in E. coli” value does the source give for “GSHMAKTLKDLDGWQVIITDDQGRVIDDNNRRRSRKRGGENVFLKRISDGLSFGKGESVIFNDNVTETYSVYLIHEIRLNTLNNVVEIWVFSYLRWFELKPKLYYEQFRPDLIKEDHPLEFYKDKFFNEVNKSELYLTAELSEIWLKDFIAVGQILPESQWNDSSIDKIEDRDFLVRYACEPTAEKFVPIDIFQIIRRVKEMEPKQSDEYLKRVSVPVSGQKTNRQVMHKMG” here?
**A.** soluble
